# Reference: the RNAGym collection of RNA variant scans (doi:10.1073/pnas.2313332121)
# This sample holds only a part of the variants without activity.
# B1: TPR 5TU (parent)
# chain: GGAUCUUCUCGAUCUAACAAAAAAGACAAAUCUGCCACAAAGCUUGAGAGCAUCUUCGGAUGCAGAGGCGGCAGCCUUCGGUGGCGCGAUAGCGCCAACGUUCUCAACUAUGACACGCAAAACGCGUGCUCCGUUGAAUGGAGUUUAUCAUG
# Variants of: B1
# Assay: polymerase ribozyme fitness, log enrichment relative to wild type (log ratio); higher = more active; in vitro selection for triplet polymerase activity
# How it was run: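 Fitness compares each genotype's enrichment to that of the wild type on a logarithmic scale, averaging replicates with inverse-variance weights. The logarithm is base 2. Enrichment came from Illumina sequencing of input and output libraries after one triplicate round of in vitro selection, which included frozen incubation at −7 °C, of PCR-built, transcribed mutant libraries of each subunit of a heterodimeric triplet polymerase ribozyme. Only genotypes with ≥10 input reads and ≥1 read per output were kept.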
row,Variant,polymerase ribozyme fitness (log ratio)
1,C8U U56G G59A G65A G84U A91G,≤ -4.2
2,C8U A60U,-3.79
3,C8U A30U C32U A64G C76A A97G A107U C108U A110G C116A,-4.12
4,C8U G94A,-3.24
5,C10U U53A C54U U55A C75G C105U G143U U145C U148A,≤ -4.2
6,C10G C57G G92C A113C G133A,≤ -4.2
7,C8U A21C A28U U53A U77G G88U U145G A150C,≤ -4.2
8,C10A C27G G46A C75A C96A,≤ -4.2
9,U9G C14G A110C C123U G141A,≤ -4.2
10,U9A A64G A89U G92A C131G,≤ -4.2
11,U9A G25C C38U G71U U135C A147G,≤ -4.2
12,C10G C75U,-3.87
13,C10A A47G A64G G81U G84U,≤ -4.2
14,G11A U55A A73G,-1.2
15,C10U C38U A73G A89G A97G C116G A122U C129A,≤ -4.2
16,C8U C57U G71C G86A U104A,≤ -4.2
17,G11A U55A,-1.11
18,C10A A17C G34A A91C U102G G140U,-3.67
19,G11A G50C C93U A97U G141U,≤ -4.2
20,C8U C54A,-3.8
21,G11A A26G U55A C87A G124C G143C U148C,≤ -4.2

row,Variant,polymerase ribozyme fitness (log ratio)
1,U9G A52G G71A A73G G128U G143U,≤ -4.2
2,G11A G34C U56A C57U C99G A142C,≤ -4.2
3,C10G A40C U78G G84U G88U G141U,≤ -4.2
4,C10U A22G U44A G100U C103A,≤ -4.2
5,C10G A97U U130G,≤ -4.2
6,C10G A37U U55A G94A C95G G140C,≤ -4.2
7,C10G G42U C63U C95A C123G,≤ -4.2
8,C10U U55G,-3.19
9,C8U G11C A23C A60G G94U G136U U144A,≤ -4.2
10,C10U A22C A60G C87U G88U,≤ -4.2
11,C10U G42C A49C A66G C79G A91G C125A A147G A150C,≤ -4.2
12,U9G U13G A22C A28U A41C C76U G92A U148A,≤ -4.2
13,U9G U44G G50A U82C C95U U139G,≤ -4.2
14,C10A A12G U53A U55A G92C G94C C105U,≤ -4.2
15,U9C G84A C103U,≤ -4.2
16,C10G U56A A89U C99U G112C U145G,≤ -4.2
17,C10U,-2.16
18,C10G,-2.78
19,C10A,-2.83
20,C10U C54U G71U C85A C96G G133C U145G G152A,≤ -4.2
21,G11A A89G G94A C105G G112C,≤ -4.2

row,Variant,polymerase ribozyme fitness (log ratio)
1,U9G U31G G83C C99U U144G,≤ -4.2
2,C8U C18G C38A C76U U78C A106U A110C C132G U135C U144C U148A C149G,≤ -4.2
3,C10G U146G,-4.19
4,U9C A17C C54U A120G,≤ -4.2
5,C10U U15G A23U C43U U82C G92U U104C,≤ -4.2
6,C10G A28C C51U C87U G88A A91C G117C G124U U130G,≤ -4.2
7,C10A A91U U101G,-4.05
8,C10A A17C A20C G34U G58C U90G,≤ -4.2
9,G11A C51U G81C G92A U151A,≤ -4.2
10,C10G A29C A30U G48U U55A A89U C93G G128U,≤ -4.2
11,C10G A30U C43G G58A G68A G80A A113C,≤ -4.2
12,U9G U33A G50A,-4.2
13,U9G U55A C96G C116A,-4.14
14,U9G G25C C27U C35U U102A A147C,≤ -4.2
15,C10A C32A C54U C116A G143A,≤ -4.2
16,C10U A17G A23C A24C A26G U31G A39U U44A C54G C57G G86U A97U A142C,≤ -4.2
17,C10A C14G A19U A30C C93U,≤ -4.2
18,G11A A110G,-3.76
19,C10U U45G A60C C85U,≤ -4.2
20,C8U G74U C79U C93A G143U,≤ -4.2
21,C10U A28U A52G U56A A73C C93U U145C C149G,≤ -4.2

row,Variant,polymerase ribozyme fitness (log ratio)
1,C10U U15A G50C C76U C85A,≤ -4.2
2,C10U A19U A21U C32G G42A G80C A137U,≤ -4.2
3,C8U C10G C35G C57A A66U G86U U134C U139C U148A,≤ -4.2
4,C8U C79A G92A C105A,≤ -4.2
5,C8U G141U,-2.76
6,G11A A23U A66C G92A C114U C125A,≤ -4.2
7,C8U A52U C54U G83A C118A U127G,≤ -4.2
8,C10G A64C C76A G92C U135A A138G U151G,≤ -4.2
9,C10U C27G C54U G92C C114G,≤ -4.2
10,C10U G94A,-2.69
11,C10G A20C C36A U53A U134A A142U,≤ -4.2
12,C10A C63U G67A U77C G92A U127C U135G,≤ -4.2
13,C10U G25U C32A C76A G83U G88C C93G,≤ -4.2
14,C10G C76A G83A A91U A106C C108A U130A,≤ -4.2
15,C8U A60G A121C,-3.73
16,C10G C69G,-4.16
17,C10U C18G A19C A40U C87G G88U,≤ -4.2
18,U9A U13A A29G C96A C132A,≤ -4.2
19,U9G U33A C36A C63U C79G C118A U135A,≤ -4.2
20,C10G C18G A21C G25A G65A C79A U104G,≤ -4.2
